Experimental data as given in patent publication US20210188989A1 (SYSTIMMUNE, published 2021).
Substitutions are numbered along the chain they refer to.

T1: recombinant cynomolgus 4-1BB extracellular domain protein (cynomolgus, UniProt A9YYE7 24-186)
T1 construct: Analyte in the Octet assay
T1 sequence: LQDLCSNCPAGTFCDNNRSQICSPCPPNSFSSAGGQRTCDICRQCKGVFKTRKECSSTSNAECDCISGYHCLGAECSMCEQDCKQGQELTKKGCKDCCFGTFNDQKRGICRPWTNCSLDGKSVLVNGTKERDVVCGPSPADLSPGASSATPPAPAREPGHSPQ

B1: 420H5 (antibody, human IgG1, kappa, V domains shown)
VH: QSLEESGGDLVKPGASLTLTCTASGFSFSSNYWICWVRQAPGKGLEWIACIYVGSSGDTYYASWAKGRFTISKTSSTTVTLQMTSLTAADTATYFCARDSSSYYMFNLWGQGTLVTVSS
VL: ALVMTQTPASVSAAVGGTVTINCQASEDIDTYLAWYQQKPGQPPKLLIFYASDLASGVPSRFKGSGSGTEFTLTISGVQCDDAATYYCQGGYYTSSADTRGAFGGGTEVVVKR
notes: one of the 34 chimeric antibodies; rabbit variable regions on human IgG1 and human kappa; also called 420H5 chimeric rabbit/human IgG
B2: 470C6 (antibody, human IgG1, kappa, V domains shown)
VH: B1 VH with S6A, S29T, N31S, W33Y, I34M, V53T, D58S, S63N
VL: B1 VL with T31N, K63S, E70Q, A97T
notes: one of the 34 chimeric antibodies; rabbit variable regions on human IgG1 and human kappa; also called 470C6 chimeric rabbit/human IgG
B3: 466F6 (antibody, human IgG1, kappa, V domains shown)
VH: RSLEESGGRLVTPGTPLTLTCTASGFTISSYHMQWVRQAPGKGLEYIGTISSGGNVYYASWARGRFTISRPSSTTVDLKMTSLTTEDTATYFCARDSGYSDPMWGPGTLVTVSS
VL: DVVMTQTPASVSEPVGGTVTIKCQASQNIRTYLSWYQQKPGQRPKLLIYAAANLASGVPSRFSGSRSGTEFTLTISDLECADAATYYCQCTYLGTDYVGGAFGGGTEVEFKR
notes: one of the 34 chimeric antibodies; rabbit variable regions on human IgG1 and human kappa; also called 466F6 chimeric rabbit/human IgG
B4: 413F3 (antibody, human IgG1, kappa, V domains shown)
VH: QSLEESGGDLVKPEGSLTLTCTGSGIDFSSNYMCWVRQAPGKGLEWIACIYGDSSDNSYSASWAKGRFTISKTSSTTVTLQMTSLTAADTATYFCARSGYSYLGYFNLWGPGTLVTVSS
VL: DVVMTQTPASVEAAVGGTVTIKCQASQSIYSNLAWYQQKPGQPPKLLIYSTSTLASGVPSRFSGSGSGTEFTLTISDLECADAATYYCQNYYGSSTDSYGNPFGGGTEVVFKR
notes: one of the 34 chimeric antibodies; rabbit variable regions on human IgG1 and human kappa; also called 413F3 chimeric rabbit/human IgG

molecular target: T2, recombinant human 4-1BB extracellular domain protein (human, UniProt Q07011 24-186); test: Octet BLI; chimeric IgG from transfection supernatant on anti-human Fc biosensor; recombinant human 41BB; column kdis(1/s) Human
T2 construct: extracellular domain; Analyte in the Octet assay; also called CD137; TNFRSF9
Excerpt: (§1) The heavy and light chain expression plasmids generated from each well were transiently co-transfected to produce rabbit/human chimeric antibodies. Recombinant antibody supernatants were confirmed to contain antibodies specific for human and cynomolgus 4-1BB using bio-layer interferometry analysis on a ForteBio Octet Red 96 instrument. Anti-human Fc biosensors (Pall ForteBio) were used to capture antibodies in the supernatants. Association to human or cynomolgus 4-1BB was observed by real-time interferometry by placing the biosensors in wells containing recombinant human or cynomolgus 4-1BB extracellular domain protein. Dissociation was measured after transfer of the biosensors into wells containing 10× kinetics buffer (Pall ForteBio). The software provided by the manufacturer was used to analyze the interferometry data. A summary of the primary BCC screening data and the corresponding screening data for 34 recombinant chimeric rabbit/human IgG antibodies is shown in FIG. 2.

| koff [s⁻¹] | Binder |
| --- | --- |
| 0.0013 | B1 |
| 0.001 | B2 |
| 0.0021 | B3 |
| 0.00054 | B4 |

molecular target: T1, recombinant cynomolgus 4-1BB …; test: Octet BLI; chimeric IgG from transfection supernatant on anti-human Fc biosensor; recombinant cynomolgus 41BB; column kdis(1/s) Cynomolgus
Excerpt: as §1

| koff [s⁻¹] | Binder |
| --- | --- |
| 0.0023 | B1 |
| 0.0014 | B2 |
| 0.0026 | B3 |
| 0.00079 | B4 |
